Patent publication US20220251222A1, “IL-6Ralpha/IL-8R BISPECIFIC BINDING AGENTS FOR INHIBITING CANCER CELL MIGRATION” (The Johns Hopkins University, priority 2019, published 2022)

Columns and labels:
[1] = target: T1, Human IL-6 (Homo sapiens, UniProt P05231); assay: Yeast cell surface affinity titration of IL-6Rα ECD on IL-6-displaying yeast; format: binding; conditions: 2 hours at room temperature, flow cytometry; read-out: KD of soluble IL-6Rα ECD on IL-6-displaying yeast
T1 construct: Human IL-6 (residues 3-185) was cloned into the pCT302 vector; made in house; host or cells: yeast (surface display)
Procedure: Human IL-6 (residues 3-185) was cloned into the pCT302 vector and presented on the surface of yeast, as described previously. (See Boder E T, Wittrup K D. Yeast surface display for screening combinatorial polypeptide libraries. Nat Biotechnol. 1997 June; 15(6):553-557. PMID: 9181578). Yeast displaying human IL-6 were incubated in PBSA containing serial dilutions of recombinant IL-6Rα ECD for 2 hours at room temperature. Cells were then washed and stained with a 1:200 dilution of Alexa647-conjugated streptavidin (Thermo) in PBSA for 15 min at 4° C. After a final wash, cells were analyzed for antibody binding using a CytoFLEX flow cytometer (Beckman Coulter).

[2] = target: T2, human IL-6Rα ECD (Homo sapiens, UniProt P08887); assay: Bio-layer interferometry (BLI) binding to immobilized IL-6Rα ECD; conditions: immobilized biotinylated IL-6Rα ECD, PBSA, 25° C., equilibrium titration
T2 construct: residues 89-303 of the mature protein; hexahistidine (C); made in house; host or cells: HEK 293F
T2 sequence (P08887 108-322): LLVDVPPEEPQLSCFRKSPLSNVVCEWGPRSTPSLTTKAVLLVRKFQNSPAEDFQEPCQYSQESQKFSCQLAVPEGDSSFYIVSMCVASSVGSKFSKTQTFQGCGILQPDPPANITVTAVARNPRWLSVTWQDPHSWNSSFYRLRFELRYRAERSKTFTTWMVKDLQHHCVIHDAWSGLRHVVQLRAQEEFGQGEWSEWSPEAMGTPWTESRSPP
Procedure: Biotinylated human IL-6Rα ECD was immobilized to streptavidin-coated tips for analysis on an Octet® Red96 BLI instrument (ForteBio). Less than 5 signal units (nm) of receptor was immobilized to minimize mass transfer effects. Tips were exposed to serial dilutions of the anti-IL-6R antibody tocilizumab, the anti-IL-8R antibody 10H2, BS1, or BS2 in a 96-well plate for 300 s and dissociation was measured for 600 s. Surface regeneration for all interactions was conducted using 15 s exposure to 0.1 M glycine pH 3.0. Experiments were carried out in PBSA (phosphate-buffered saline [PBS] pH 7.3 plus 0.1% bovine serum albumin [BSA, Thermo]) at 25° C. Data was visualized and processed using the Octet® Data Analysis software version 7.1 (ForteBio). Equilibrium titration curve fitting and equilibrium dissociation constant (KD) value determination was implemented in GraphPad Prism software using a first-order logistic model. Experiments were reproduced two times with similar results.

[3] = target: T3, IL-6/IL-6Rα interaction (Homo sapiens, UniProt P08887); assay: Yeast cell surface competition of IL-6/IL-6Rα binding; conditions: IL-6-displaying yeast, biotinylated IL-6Rα ECD 300 nM
T3 construct: residues 89-303 of the mature protein; hexahistidine (C); made in house; host or cells: HEK 293F (IL-6Rα ECD)
T3 sequence (P08887 108-322): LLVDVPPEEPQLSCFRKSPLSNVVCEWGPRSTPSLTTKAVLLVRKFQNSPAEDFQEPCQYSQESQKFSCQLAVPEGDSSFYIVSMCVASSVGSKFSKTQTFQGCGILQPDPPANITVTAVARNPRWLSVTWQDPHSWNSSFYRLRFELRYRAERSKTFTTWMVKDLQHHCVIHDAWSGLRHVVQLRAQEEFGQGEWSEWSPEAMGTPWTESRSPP
Procedure: Approximately 1×10^5 human IL-6-displaying yeast per well were plated in a 96-well plate and washed with PBSA. Yeast cells were incubated with saturating concentrations of biotinylated human IL-6Rα (300 nM) and serial dilutions of unlabeled competitor antibody (either the anti-IL-6R antibody tocilizumab, the anti-IL-8R antibody 10H2, BS1, or BS2) in PBSA for 2 hours at room temperature. Cells were then washed and stained with a 1:200 dilution of Alexa647-conjugated streptavidin (Thermo) in PBSA for 15 min at 4° C. Cells were washed again and assessed for human IL-6Rα binding on a CytoFLEX flow cytometer (Beckman Coulter). Background-subtracted fluorescent signal as a fraction of receptor subunit binding in the absence of competitor antibody was plotted. Curves were fitted to a first order logistic model and half maximal inhibitory concentrations (IC50s) were computed using GraphPad Prism. Assays were performed in triplicate and repeated two times with consistent results.

[4] = target: T4, IL-8R (Homo sapiens, UniProt P25025); assay: Cell surface binding on IL-6Rα−/IL-8R+ HEK 293T cells (flow cytometry); conditions: 2 hr at 4° C.
T4 construct: expressed in transfected cells; host or cells: HEK 293T, lentiviral transduction (pCDH backbone)
T4 sequence (P25025 1-360): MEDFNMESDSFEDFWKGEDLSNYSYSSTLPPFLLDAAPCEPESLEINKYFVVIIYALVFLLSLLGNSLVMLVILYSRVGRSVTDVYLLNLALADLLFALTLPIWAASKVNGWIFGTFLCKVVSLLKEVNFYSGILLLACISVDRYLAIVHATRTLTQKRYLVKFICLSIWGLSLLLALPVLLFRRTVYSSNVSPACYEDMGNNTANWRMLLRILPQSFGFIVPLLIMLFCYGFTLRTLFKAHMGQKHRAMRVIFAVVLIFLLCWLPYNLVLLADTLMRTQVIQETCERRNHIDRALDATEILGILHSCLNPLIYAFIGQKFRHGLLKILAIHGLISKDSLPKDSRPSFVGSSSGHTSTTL
From the text: GeneJuice (Sigma Aldrich) was used as the transfection reagent.
Mean fluorescence intensity (MFI) of unstimulated cells was subtracted.

[5] = target: T5, IL-6 binding to IL-6Rα (Homo sapiens, UniProt P08887); assay: IL-6 cell surface binding inhibition on IL-6Rα+/IL-8R− HEK 293T cells; conditions: IL-6Rα+/IL-8R− 293 T cells, biotinylated IL-6 100 nM
T5 construct: expressed in transfected cells; host or cells: HEK 293T, lentiviral transduction (IL-6Rα+/IL-8R−)
T5 sequence (P08887 20-468): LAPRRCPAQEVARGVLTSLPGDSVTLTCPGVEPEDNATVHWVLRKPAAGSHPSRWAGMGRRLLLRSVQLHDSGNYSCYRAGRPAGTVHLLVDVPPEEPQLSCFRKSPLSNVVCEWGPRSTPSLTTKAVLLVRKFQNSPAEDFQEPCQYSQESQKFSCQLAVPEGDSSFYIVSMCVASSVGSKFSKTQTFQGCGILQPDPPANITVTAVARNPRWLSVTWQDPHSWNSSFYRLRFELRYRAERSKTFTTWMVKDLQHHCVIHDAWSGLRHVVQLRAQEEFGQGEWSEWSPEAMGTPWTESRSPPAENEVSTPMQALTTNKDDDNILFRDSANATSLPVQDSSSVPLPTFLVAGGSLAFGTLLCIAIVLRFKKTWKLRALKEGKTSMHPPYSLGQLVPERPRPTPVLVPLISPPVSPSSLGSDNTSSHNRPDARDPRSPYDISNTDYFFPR
Procedure: Cells were then washed and incubated with 1:200 dilution of Alexa Fluor 647-conjugated streptavidin (Fisher Scientific, cat #: S21374) in PBSA for 15 min at 4° C. […] Curves were fitted to a first-order logistic model and IC50 values were calculated using GraphPad Prism data analysis software. Mean fluorescence intensity (MFI) of unstimulated cells was subtracted. […]

[6] = tested on: IL-6-mediated phosphorylation of STAT3; assay: IL-6 signaling inhibition assay (STAT3 phosphorylation) in HepG2 cells; format: cell-based, human; conditions: IL-6 10 nM, 20 min at 37° C.
Procedure: HepG2 cells were then fixed with 1.6% PFA, permeabilized with methanol and incubated with 1:50 dilution of Alexa Fluor 647 conjugated anti-pSTAT3 antibody (BD Biosciences, clone 4/P-STAT3) in PBSA for 2 h at room temperature. […] IC50 values were calculated using a first order logistic fitting models in GraphPad Prism data analysis software. Mean fluorescence intensity (MFI) of unstimulated cells was subtracted. Experiments were conducted in triplicate and performed twice times with similar results.

T1 sequence (P05231 30-212): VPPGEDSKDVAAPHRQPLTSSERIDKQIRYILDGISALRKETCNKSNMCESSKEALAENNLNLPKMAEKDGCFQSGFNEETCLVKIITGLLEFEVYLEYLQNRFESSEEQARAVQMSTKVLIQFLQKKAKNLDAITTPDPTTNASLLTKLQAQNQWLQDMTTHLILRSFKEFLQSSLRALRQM

B1: IL-6Rα ECD: recombinant human IL-6Rα extracellular domain, residues 89-303, biotinylated (protein)
chain: LLVDVPPEEPQLSCFRKSPLSNVVCEWGPRSTPSLTTKAVLLVRKFQNSPAEDFQEPCQYSQESQKFSCQLAVPEGDSSFYIVSMCVASSVGSKFSKTQTFQGCGILQPDPPANITVTAVARNPRWLSVTWQDPHSWNSSFYRLRFELRYRAERSKTFTTWMVKDLQHHCVIHDAWSGLRHVVQLRAQEEFGQGEWSEWSPEAMGTPWTESRSPPLNDIFEAQKIEWHEHHHHHH
[1]
  Kd: 88 nM

B2: 10H2: anti-IL-8RB monoclonal antibody, expressed as hIgG1 (antibody, V domains shown)
VH: EVQLVETGGRLVQPKGSLKLSCAVSGITFKTNAMNWVRQAPGKGLEWVARIRTKSYNYATYYADSVKDRFTISRDDSQSILYLQMNNLKTEDTAMYHCVREGRWGQGTLVTVSA
VL: QAVVTQESALTTSPGETVTLTCRSSTGAVTTSNYANWVQEKPDHLFTGLIGGTNNRPPGVPARFSGSLIGDKAALTITGAQIEDEAIYFCALWYSNHLVFGGGTKLTVL
[2]
  binding affinity (KD) to IL-6Rα via BLI: did not engage IL-6Rα
[3]
  IC50, inhibition of IL-6/IL-6Rα binding: did not compete
[4]
  KD, binding to IL-8R on cells: only recognized IL-8R^+ cells
[5]
  IC50, competition with IL-6 binding to IL-6Rα: no inhibitory effects
[6]
  IC50, inhibition of STAT3 phosphorylation: did not effect inhibition
